Laboratory results taken from patent US6670136 (TRUSTEES OF COLUMBIA UNIVERSITY IN THE CITY OF NEW YORK, dated 2003).

B1: EN-RAGE (Extracellular Novel RAGE binding protein), recombinant bovine, expressed in Sf9 cells (ligand)
chain: TKLEDHLEGIINIFHQYSVRVGHFDTLNKRELKQLITKELPKTLQNTKDQPTIDKIFQDLDADKDGAVSFEEFVVLVSRVLKTAHIDIHK
notes: Recombinant protein made from a bovine lung cDNA in baculovirus/Sf9; In the cell assays it was unlabelled; also called radiolabelled EN-RAGE
B2: purified S100B from human brain (Calbiochem-Novabiochem) (ligand, UniProt P04271 2-92, looked up)
chain: SELEKAMVALIDVFHQYSGREGDKHKLKKSELKELINNELSHFLEEIKEQEVVDKVMETLDNDGDGECDFQEFMAFVAMVTTACHEFFEHE

Assays:
[1] = target: T1, human soluble RAGE (sRAGE), prepared from a baculovirus expression system (human, UniProt Q15109 23-342); test: radioligand binding: 125I-EN-RAGE on human sRAGE adsorbed to plastic wells, with or without 50-fold unlabelled EN-RAGE
T1 construct: extracellular domain; Murine sRAGE was used only in the in vivo studies; also called purified RAGE; immobilized RAGE
Protocol: (§1) Where indicated, radiolabelled EN-RAGE (100 nM) was incubated with the indicated amount of excess sRAGE two hours prior to binding assay, or wells were preincubated for two hours with the indicated concentration of rabbit nonimmune IgG, or polyclonal monospecific rabbit anti-EN-RAGE IgG or anti-RAGE: IgG prior to binding assay and results reported as % maximal specific binding ±SD of the mean. These experiments were performed at least five times with analogous results.
(§2) Radioligand binding assays were performed in 96-well dishes to which had been adsorbed either purified human RAGE (5 μg/well) or bovine aortic endothelial cells. In the former case, after adsorption of human soluble RAGE to the plastic dish in carbonate/bicarbonate buffer (pH 9.3) overnight, wells were then washed with PBS containing Tween 20 (0.05%). Unoccupied binding sites on the plastic wells were blocked by incubation with PBS containing calcium/magnesium and bovine serum albumin (1%) for two hours at 37° C. After aspiration of the wells, a radioligand binding assay was performed in the presence of the indicated concentration of radiolabelled EN-RAGE ± an 50-fold molar excess of unlabelled EN-RAGE in PBS containing calcium/magnesium and BSA, 0.2%, for 3 hrs at 37° C. […] Solution was then aspirated from the wells and counted in a gamma counter (LKB, Gaithersburg, Md.). […]

[2] = target: T1, human soluble RAGE (sRAGE), prepared …; test: binding to immobilized RAGE in culture wells
Protocol: as §1, with “(Panel C–D) EN-RAGE binds purified RAGE (C) and BAECs (D): In C, human soluble RAGE was immobilized onto the wells of plastic dishes and in D, confluent BAECs were cultured onto tissue culture-treated wells. […] Where” for “Where”
Radioligand binding assays were performed in 96-well dishes to which had been adsorbed either purified human RAGE (5 μg/well) or bovine aortic endothelial cells. In the former case, after adsorption of human soluble RAGE to the plastic dish in carbonate/bicarbonate buffer (pH 9.3) overnight, wells were then washed with PBS containing Tween 20 (0.05%). Unoccupied binding sites on the plastic wells were blocked by incubation with PBS containing calcium/magnesium and bovine serum albumin (1%) for two hours at 37° C. […] Solution was then aspirated from the wells and counted in a gamma counter (LKB, Gaithersburg, Md.).

[3] = target: T2, RAGE on macrophage-like BV2 cells (macrophage (MP) RAGE) (UniProt Q62151 23-402, limits assumed); test: binding to macrophage RAGE in culture wells
T2 construct: whole, on cells; also called BV-2 macrophages

[4] = target: T3, RAGE on bovine aortic endothelial cells (BAEC RAGE) (bovine, UniProt Q28173 23-416); test: radioligand binding: 125I-EN-RAGE on confluent bovine aortic endothelial cells
T3 construct: whole, on cells; The target is endogenous RAGE on confluent BAEC monolayers; also called BAECs; endothelial (EC) RAGE
T3 sequence (looked up): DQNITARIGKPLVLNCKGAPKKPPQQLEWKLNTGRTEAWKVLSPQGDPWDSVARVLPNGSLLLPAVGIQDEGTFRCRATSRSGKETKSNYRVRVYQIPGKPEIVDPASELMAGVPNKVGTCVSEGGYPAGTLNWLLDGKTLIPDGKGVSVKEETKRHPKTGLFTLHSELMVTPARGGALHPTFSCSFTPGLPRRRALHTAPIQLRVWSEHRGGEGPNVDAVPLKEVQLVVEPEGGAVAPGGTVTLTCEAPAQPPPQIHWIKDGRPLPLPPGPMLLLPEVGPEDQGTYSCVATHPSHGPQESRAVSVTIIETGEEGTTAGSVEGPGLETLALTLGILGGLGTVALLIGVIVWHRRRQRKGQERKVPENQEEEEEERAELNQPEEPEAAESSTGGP
Protocol: as §1, §2

[5] = target: T3, RAGE on bovine aortic endothelial cells …; test: binding to endothelial cell RAGE in culture wells
Protocol: as §1, §2

[6] = target: cellular RAGE on human cells (HUVEC, Molt-4, PBMC, Jurkat) (human, UniProt Q15109 23-404); test: cell-based or functional assay
Sequence of cellular RAGE on human cells (HUVEC, Molt-4, PBMC, Jurkat) (Q15109 23-404): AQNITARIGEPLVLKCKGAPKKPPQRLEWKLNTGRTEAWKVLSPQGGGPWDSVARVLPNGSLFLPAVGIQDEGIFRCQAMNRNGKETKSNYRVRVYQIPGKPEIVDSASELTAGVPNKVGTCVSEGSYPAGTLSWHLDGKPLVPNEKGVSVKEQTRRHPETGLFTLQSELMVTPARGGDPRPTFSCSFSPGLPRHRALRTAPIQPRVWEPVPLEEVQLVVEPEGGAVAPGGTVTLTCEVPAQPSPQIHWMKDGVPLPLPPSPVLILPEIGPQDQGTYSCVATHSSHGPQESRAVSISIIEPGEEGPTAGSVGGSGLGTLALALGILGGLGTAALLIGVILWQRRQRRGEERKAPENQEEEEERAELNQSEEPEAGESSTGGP

T1 sequence (Q15109 23-342): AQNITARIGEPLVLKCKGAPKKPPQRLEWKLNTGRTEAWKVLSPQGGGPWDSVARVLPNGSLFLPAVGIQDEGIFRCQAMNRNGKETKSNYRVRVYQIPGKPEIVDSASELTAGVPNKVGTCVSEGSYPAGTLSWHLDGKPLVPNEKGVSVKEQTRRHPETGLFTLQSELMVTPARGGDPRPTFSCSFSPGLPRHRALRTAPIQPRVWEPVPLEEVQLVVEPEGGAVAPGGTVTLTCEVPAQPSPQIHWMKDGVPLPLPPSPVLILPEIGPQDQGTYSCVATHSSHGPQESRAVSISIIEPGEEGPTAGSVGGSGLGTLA
T2 sequence (Q62151 23-402 limits assumed): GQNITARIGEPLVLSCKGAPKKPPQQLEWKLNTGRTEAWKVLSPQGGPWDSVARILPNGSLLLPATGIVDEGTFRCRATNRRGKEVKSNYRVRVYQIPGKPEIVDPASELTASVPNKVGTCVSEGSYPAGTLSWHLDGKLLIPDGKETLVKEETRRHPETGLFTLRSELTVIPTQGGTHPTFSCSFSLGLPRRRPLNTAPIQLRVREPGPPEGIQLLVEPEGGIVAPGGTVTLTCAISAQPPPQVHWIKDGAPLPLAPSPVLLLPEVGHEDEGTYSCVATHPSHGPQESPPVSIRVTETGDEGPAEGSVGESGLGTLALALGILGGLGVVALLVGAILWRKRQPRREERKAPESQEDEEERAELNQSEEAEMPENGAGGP

Binder | Kd [1] | Kd [2] | Kd [3] | Kd [4] | Kd [5] | adhesion of Molt-4 cells to cultured ECs [6] | expression of cell-surface VCAM-1 on cultured ECs [6] | nuclear NF-kB in HUVEC (EMSA, densitometry) [6] | nuclear translocation of NF-kB in HUVEC (EMSA) [6]
B1 | ~0.091 µM | ~0.075 µM | ~0.075 µM | ~0.0903 µM | ~0.075 µM | 7 fold | 4.3 fold | ~5 fold | –
B2 | – | – | – | – | – | – | – | – | ~13.9 fold
